Starred links: 1 amine or outer side, 2 acyl side, 3 side chain; linkers in the order of their positions; H or OH if unused. Non-standard residues stand in square brackets, D forms with d. Groups on a side chain read outwards from the residue. No end group written: not given here. *: point of attachment. C18 diacid = O=C(O)CCCCCCCCCCCCCCCCC(=O)*; γGlu = O=C(O)[C@H](CCC(=O)[*:2])N[*:1]; AEEA = NCCOCCOCC(=O)O; Aib = CC(C)(N)C(=O)O

The assay deals with human corticotropin-releasing factor 2α (CRF2 α receptor) (human), Q13324. The assay is described as follows: cell-based or functional assay.
Sequence of human corticotropin-releasing factor 2α (CRF2 α receptor) (human), Q13324 (Q13324 20-411): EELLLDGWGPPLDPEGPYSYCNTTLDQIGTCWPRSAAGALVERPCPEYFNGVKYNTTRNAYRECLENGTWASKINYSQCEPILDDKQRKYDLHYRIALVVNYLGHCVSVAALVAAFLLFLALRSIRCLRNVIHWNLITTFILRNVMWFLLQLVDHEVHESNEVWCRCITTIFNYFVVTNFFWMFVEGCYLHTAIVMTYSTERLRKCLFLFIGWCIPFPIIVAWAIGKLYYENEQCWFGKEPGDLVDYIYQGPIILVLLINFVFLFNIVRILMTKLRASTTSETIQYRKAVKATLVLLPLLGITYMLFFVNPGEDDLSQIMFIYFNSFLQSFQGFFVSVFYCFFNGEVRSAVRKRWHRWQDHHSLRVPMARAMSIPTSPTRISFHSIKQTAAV

B1: SEQ ID NO: 75 (peptide)
peptide: IVLSLDVPIKLK([AEEA-AEEA-γGlu-C18 diacid])QILLKQERQKKQRQQAETN[Aib]QILAQV-NH2
modifications: N-terminus assumed
SMILES: CC[C@H](C)[C@H](N)C(=O)N[C@H](C(=O)N[C@@H](CC(C)C)C(=O)N[C@@H](CO)C(=O)N[C@@H](CC(C)C)C(=O)N[C@@H](CC(=O)O)C(=O)N[C@H](C(=O)N1CCC[C@H]1C(=O)N[C@H](C(=O)N[C@@H](CCCCN)C(=O)N[C@@H](CC(C)C)C(=O)N[C@@H](CCCCNC(=O)COCCOCCNC(=O)COCCOCCNC(=O)CC[C@H](NC(=O)CCCCCCCCCCCCCCCCC(=O)O)C(=O)O)C(=O)N[C@@H](CCC(N)=O)C(=O)N[C@H](C(=O)N[C@@H](CC(C)C)C(=O)N[C@@H](CC(C)C)C(=O)N[C@@H](CCCCN)C(=O)N[C@@H](CCC(N)=O)C(=O)N[C@@H](CCC(=O)O)C(=O)N[C@@H](CCCNC(=N)N)C(=O)N[C@@H](CCC(N)=O)C(=O)N[C@@H](CCCCN)C(=O)N[C@@H](CCCCN)C(=O)N[C@@H](CCC(N)=O)C(=O)N[C@@H](CCCNC(=N)N)C(=O)N[C@@H](CCC(N)=O)C(=O)N[C@@H](CCC(N)=O)C(=O)N[C@@H](C)C(=O)N[C@@H](CCC(=O)O)C(=O)N[C@H](C(=O)N[C@@H](CC(N)=O)C(=O)NC(C)(C)C(=O)N[C@@H](CCC(N)=O)C(=O)N[C@H](C(=O)N[C@@H](CC(C)C)C(=O)N[C@@H](C)C(=O)N[C@@H](CCC(N)=O)C(=O)N[C@H](C(N)=O)C(C)C)[C@@H](C)CC)[C@@H](C)O)[C@@H](C)CC)[C@@H](C)CC)C(C)C)C(C)C
In the case of B1, the EC50 [nM], 0% HSA turned out to be 0.48 nM.

B2: SEQ ID NO: 77 (peptide)
peptide: IVLSLDVPIKLK([AEEA-AEEA-γGlu-C18 diacid])QILLKQERQKKQRQKAETNKQILAQV-NH2
modifications: N-terminus assumed
SMILES: CC[C@H](C)[C@H](N)C(=O)N[C@H](C(=O)N[C@@H](CC(C)C)C(=O)N[C@@H](CO)C(=O)N[C@@H](CC(C)C)C(=O)N[C@@H](CC(=O)O)C(=O)N[C@H](C(=O)N1CCC[C@H]1C(=O)N[C@H](C(=O)N[C@@H](CCCCN)C(=O)N[C@@H](CC(C)C)C(=O)N[C@@H](CCCCNC(=O)COCCOCCNC(=O)COCCOCCNC(=O)CC[C@H](NC(=O)CCCCCCCCCCCCCCCCC(=O)O)C(=O)O)C(=O)N[C@@H](CCC(N)=O)C(=O)N[C@H](C(=O)N[C@@H](CC(C)C)C(=O)N[C@@H](CC(C)C)C(=O)N[C@@H](CCCCN)C(=O)N[C@@H](CCC(N)=O)C(=O)N[C@@H](CCC(=O)O)C(=O)N[C@@H](CCCNC(=N)N)C(=O)N[C@@H](CCC(N)=O)C(=O)N[C@@H](CCCCN)C(=O)N[C@@H](CCCCN)C(=O)N[C@@H](CCC(N)=O)C(=O)N[C@@H](CCCNC(=N)N)C(=O)N[C@@H](CCC(N)=O)C(=O)N[C@@H](CCCCN)C(=O)N[C@@H](C)C(=O)N[C@@H](CCC(=O)O)C(=O)N[C@H](C(=O)N[C@@H](CC(N)=O)C(=O)N[C@@H](CCCCN)C(=O)N[C@@H](CCC(N)=O)C(=O)N[C@H](C(=O)N[C@@H](CC(C)C)C(=O)N[C@@H](C)C(=O)N[C@@H](CCC(N)=O)C(=O)N[C@H](C(N)=O)C(C)C)[C@@H](C)CC)[C@@H](C)O)[C@@H](C)CC)[C@@H](C)CC)C(C)C)C(C)C
As for B2, the EC50 [nM], 0% HSA was found to be 0.33 nM.

B3: SEQ ID NO: 74 (peptide)
peptide: IVLSLDVPIKLK([AEEA-AEEA-γGlu-C18 diacid])QILLEQERQKKQREQAETN[Aib]QILERV-NH2
modifications: N-terminus assumed
SMILES: CC[C@H](C)[C@H](N)C(=O)N[C@H](C(=O)N[C@@H](CC(C)C)C(=O)N[C@@H](CO)C(=O)N[C@@H](CC(C)C)C(=O)N[C@@H](CC(=O)O)C(=O)N[C@H](C(=O)N1CCC[C@H]1C(=O)N[C@H](C(=O)N[C@@H](CCCCN)C(=O)N[C@@H](CC(C)C)C(=O)N[C@@H](CCCCNC(=O)COCCOCCNC(=O)COCCOCCNC(=O)CC[C@H](NC(=O)CCCCCCCCCCCCCCCCC(=O)O)C(=O)O)C(=O)N[C@@H](CCC(N)=O)C(=O)N[C@H](C(=O)N[C@@H](CC(C)C)C(=O)N[C@@H](CC(C)C)C(=O)N[C@@H](CCC(=O)O)C(=O)N[C@@H](CCC(N)=O)C(=O)N[C@@H](CCC(=O)O)C(=O)N[C@@H](CCCNC(=N)N)C(=O)N[C@@H](CCC(N)=O)C(=O)N[C@@H](CCCCN)C(=O)N[C@@H](CCCCN)C(=O)N[C@@H](CCC(N)=O)C(=O)N[C@@H](CCCNC(=N)N)C(=O)N[C@@H](CCC(=O)O)C(=O)N[C@@H](CCC(N)=O)C(=O)N[C@@H](C)C(=O)N[C@@H](CCC(=O)O)C(=O)N[C@H](C(=O)N[C@@H](CC(N)=O)C(=O)NC(C)(C)C(=O)N[C@@H](CCC(N)=O)C(=O)N[C@H](C(=O)N[C@@H](CC(C)C)C(=O)N[C@@H](CCC(=O)O)C(=O)N[C@@H](CCCNC(=N)N)C(=O)N[C@H](C(N)=O)C(C)C)[C@@H](C)CC)[C@@H](C)O)[C@@H](C)CC)[C@@H](C)CC)C(C)C)C(C)C
Turning to B3, the EC50 [nM], 0% HSA amounted to 2.12 nM.

B4: SEQ ID NO: 72 (peptide)
peptide: IVLSLDVPIKLK([AEEA-AEEA-γGlu-C18 diacid])QILLEQERQKKQRQQAETN[Aib]QILAQV-NH2
modifications: N-terminus assumed
SMILES: CC[C@H](C)[C@H](N)C(=O)N[C@H](C(=O)N[C@@H](CC(C)C)C(=O)N[C@@H](CO)C(=O)N[C@@H](CC(C)C)C(=O)N[C@@H](CC(=O)O)C(=O)N[C@H](C(=O)N1CCC[C@H]1C(=O)N[C@H](C(=O)N[C@@H](CCCCN)C(=O)N[C@@H](CC(C)C)C(=O)N[C@@H](CCCCNC(=O)COCCOCCNC(=O)COCCOCCNC(=O)CC[C@H](NC(=O)CCCCCCCCCCCCCCCCC(=O)O)C(=O)O)C(=O)N[C@@H](CCC(N)=O)C(=O)N[C@H](C(=O)N[C@@H](CC(C)C)C(=O)N[C@@H](CC(C)C)C(=O)N[C@@H](CCC(=O)O)C(=O)N[C@@H](CCC(N)=O)C(=O)N[C@@H](CCC(=O)O)C(=O)N[C@@H](CCCNC(=N)N)C(=O)N[C@@H](CCC(N)=O)C(=O)N[C@@H](CCCCN)C(=O)N[C@@H](CCCCN)C(=O)N[C@@H](CCC(N)=O)C(=O)N[C@@H](CCCNC(=N)N)C(=O)N[C@@H](CCC(N)=O)C(=O)N[C@@H](CCC(N)=O)C(=O)N[C@@H](C)C(=O)N[C@@H](CCC(=O)O)C(=O)N[C@H](C(=O)N[C@@H](CC(N)=O)C(=O)NC(C)(C)C(=O)N[C@@H](CCC(N)=O)C(=O)N[C@H](C(=O)N[C@@H](CC(C)C)C(=O)N[C@@H](C)C(=O)N[C@@H](CCC(N)=O)C(=O)N[C@H](C(N)=O)C(C)C)[C@@H](C)CC)[C@@H](C)O)[C@@H](C)CC)[C@@H](C)CC)C(C)C)C(C)C
For B4, the EC50 [nM], 0% HSA was determined as 0.65 nM.

B5: SEQ ID NO: 76 (peptide)
peptide: IVLSLDVPIGLK([AEEA-AEEA-γGlu-C18 diacid])QILLEQERQKKQRQQAETN[Aib]QILAQV-NH2
modifications: N-terminus assumed
SMILES: CC[C@H](C)[C@H](N)C(=O)N[C@H](C(=O)N[C@@H](CC(C)C)C(=O)N[C@@H](CO)C(=O)N[C@@H](CC(C)C)C(=O)N[C@@H](CC(=O)O)C(=O)N[C@H](C(=O)N1CCC[C@H]1C(=O)N[C@H](C(=O)NCC(=O)N[C@@H](CC(C)C)C(=O)N[C@@H](CCCCNC(=O)COCCOCCNC(=O)COCCOCCNC(=O)CC[C@H](NC(=O)CCCCCCCCCCCCCCCCC(=O)O)C(=O)O)C(=O)N[C@@H](CCC(N)=O)C(=O)N[C@H](C(=O)N[C@@H](CC(C)C)C(=O)N[C@@H](CC(C)C)C(=O)N[C@@H](CCC(=O)O)C(=O)N[C@@H](CCC(N)=O)C(=O)N[C@@H](CCC(=O)O)C(=O)N[C@@H](CCCNC(=N)N)C(=O)N[C@@H](CCC(N)=O)C(=O)N[C@@H](CCCCN)C(=O)N[C@@H](CCCCN)C(=O)N[C@@H](CCC(N)=O)C(=O)N[C@@H](CCCNC(=N)N)C(=O)N[C@@H](CCC(N)=O)C(=O)N[C@@H](CCC(N)=O)C(=O)N[C@@H](C)C(=O)N[C@@H](CCC(=O)O)C(=O)N[C@H](C(=O)N[C@@H](CC(N)=O)C(=O)NC(C)(C)C(=O)N[C@@H](CCC(N)=O)C(=O)N[C@H](C(=O)N[C@@H](CC(C)C)C(=O)N[C@@H](C)C(=O)N[C@@H](CCC(N)=O)C(=O)N[C@H](C(N)=O)C(C)C)[C@@H](C)CC)[C@@H](C)O)[C@@H](C)CC)[C@@H](C)CC)C(C)C)C(C)C
B5 yielded an EC50 [nM], 0% HSA of 13.4 nM.

B6: SEQ ID NO: 73 (peptide)
peptide: IVLSLDVPIKLK([AEEA-AEEA-γGlu-C18 diacid])QILLEQERQKKQRQKAETN[Aib]QILAQV-NH2
modifications: N-terminus assumed
SMILES: CC[C@H](C)[C@H](N)C(=O)N[C@H](C(=O)N[C@@H](CC(C)C)C(=O)N[C@@H](CO)C(=O)N[C@@H](CC(C)C)C(=O)N[C@@H](CC(=O)O)C(=O)N[C@H](C(=O)N1CCC[C@H]1C(=O)N[C@H](C(=O)N[C@@H](CCCCN)C(=O)N[C@@H](CC(C)C)C(=O)N[C@@H](CCCCNC(=O)COCCOCCNC(=O)COCCOCCNC(=O)CC[C@H](NC(=O)CCCCCCCCCCCCCCCCC(=O)O)C(=O)O)C(=O)N[C@@H](CCC(N)=O)C(=O)N[C@H](C(=O)N[C@@H](CC(C)C)C(=O)N[C@@H](CC(C)C)C(=O)N[C@@H](CCC(=O)O)C(=O)N[C@@H](CCC(N)=O)C(=O)N[C@@H](CCC(=O)O)C(=O)N[C@@H](CCCNC(=N)N)C(=O)N[C@@H](CCC(N)=O)C(=O)N[C@@H](CCCCN)C(=O)N[C@@H](CCCCN)C(=O)N[C@@H](CCC(N)=O)C(=O)N[C@@H](CCCNC(=N)N)C(=O)N[C@@H](CCC(N)=O)C(=O)N[C@@H](CCCCN)C(=O)N[C@@H](C)C(=O)N[C@@H](CCC(=O)O)C(=O)N[C@H](C(=O)N[C@@H](CC(N)=O)C(=O)NC(C)(C)C(=O)N[C@@H](CCC(N)=O)C(=O)N[C@H](C(=O)N[C@@H](CC(C)C)C(=O)N[C@@H](C)C(=O)N[C@@H](CCC(N)=O)C(=O)N[C@H](C(N)=O)C(C)C)[C@@H](C)CC)[C@@H](C)O)[C@@H](C)CC)[C@@H](C)CC)C(C)C)C(C)C
Molecule B6 registered an EC50 [nM], 0% HSA of 2.6 nM.

Source of the values: patent US12679878B2, “CRF2 receptor agonists and their use in therapy” (SANOFI, priority 2020, dated 2026).
